{"source": "IntAct's records for PubMed 10064581", "parents": {"B1": {"name": "Circadian clock oscillator protein KaiA (Synechococcus elongatus (strain PCC 7942)), Q79PF6 (parent)", "chain": "MLSQIAICIWVESTAILQDCQRALSADRYQLQVCESGEMLLEYAQTHRDQIDCLILVAANPSFRAVVQQLCFEGVVVPAIVVGDRDSEDPDEPAKEQLYHSAELHLGIHQLEQLPYQVDAALAEFLRLAPVETMADHIMLMGANHDPELSSQQRDLAQRLQERLGYLGVYYKRDPDRFLRNLPAYESQKLHQAMQTSYREIVLSYFSPNSNLNQSIDNFVNMAFFADVPVTKVVEIHMELMDEFAKKLRVEGRSEDILLDYRLTLIDVIAHLCEMYRRSIPRET", "partner": "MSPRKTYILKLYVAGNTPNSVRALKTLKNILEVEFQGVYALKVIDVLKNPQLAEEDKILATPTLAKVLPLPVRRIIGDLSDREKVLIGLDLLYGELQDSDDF"}}, "data": [{"variants_of": "B1", "conditions": "with kaib_syne7 kaiB", "values": [{"variant": "E103K", "effect of a mutation on the interaction": "increasing interaction"}]}]}
